# Assay results from patent publication CN117567612A (CHINA RESOURCES BIOMEDICAL CO LTD, dated 2024).
# Legend:
# CLDN18.2 [1] = molecular target: T1, CLDN18.2; assay: flow cytometry on CLDN18.2-overexpressing cells, MFI fitted in GraphPad Prism
# T1 construct: For the EC50 it stood on overexpressing cells; also called claudin18.2; CLDN18.2过表达细胞
# CLDN18.2 [2] = molecular target: T1, CLDN18.2; assay: kinetics, method not stated
Binder,EC50 (CLDN18.2 [1]),Kd (CLDN18.2 [2]),koff (CLDN18.2 [2]),kon (CLDN18.2 [2])
"CLDN-BC-P1022-hH1 (antibody, V domains shown, detected with anti-human IgG Fc); P1022 is the only antibody of the application; also called CLN-P1022-hH1; 全人源抗体P1022) VH: QVQLVQSGGGLVQPGGSLRLSCAASGFTFSSYEMNWVRQAPGKGLEWVAYITGSGRTMYYADSVKGRITISRDNAKNSLYLQMNSLRAEDTAVYYCARYWNYAGGMDVWGQGTLVTVSS VL: DIQMTQSPSSVSASVGDRVTITCRASQGISSWLAWYQQKPGKAPKLLIYAASSLQSGVPSRFSGSGSGTDFTLTISSLQPEDFATYYCQQANSFPLTFGGGTKVEIK",0.12 µg/mL,,,
"IMAB362 (antibody, V domains shown) VH: QVQLQQPGAELVRPGASVKLSCKASGYTFTSYWINWVKQRPGQGLEWIGNIYPSDSYTNYNQKFKDKATLTVDKSSSTAYMQLSSPTSEDSAVYYCTRSWRGNSFDYWGQGTTLTVSS VL: DIVMTQSPSSLTVTAGEKVTMSCKSSQSLLNSGNQKNYLTWYQQKPGQPPKLLIYWASTRESGVPDRFTGSGSGTDFTLTISSVQAEDLAVYYCQNDYSYPFTFGSGTKLEIKR",1.75 µg/mL,4.17 nM,0.00158 s⁻¹,378000 M⁻¹ s⁻¹
